Assay [1] addresses T1, SARS-CoV-1 RBD (Sino Biological) (SARS-CoV-1, UniProt P59594 306-527). Nature of the assay: ELISA, antigen coated on the plate, OD 405 nm. On the technique in general: In an ELISA, binding on a coated surface is turned into a signal by an enzyme label.
The target of assay [2] is T1, SARS-CoV-1 RBD (Sino Biological). Nature of the assay: ELISA, antigen coated on the plate, OD 405 nm. The source holds these as a separate data set.
In assay [3] the target is SARS-CoV-2 Spike (S) protein, strain BetaCoV/Wuhan-Hu-1/2019, full length (SARS-CoV-2 Wuhan-Hu-1, UniProt P0DTC2 14-1273). Nature of the assay: cell-based or functional assay.
Assay [4] has as its target T2, SARS-CoV-2 RBD (produced in house in Expi-CHO cells; residues 331-550 of spike) (SARS-CoV-2 BetaCoV/Wuhan-Hu-1/2019, UniProt P0DTC2 331-550). Description: ELISA, antigen coated on the plate, OD 405 nm.
The target of assay [5] is T3, SARS-CoV-1 RBD (Sino Biological) (SARS-CoV-1, UniProt P59594 306-527). Description: ELISA, antigen coated on the plate, OD 405 nm. This is another data set of the same source.
Assay [6] has as its target T2, SARS-CoV-2 RBD (produced in house in …). Description: ELISA, antigen coated on the plate, OD 405 nm. This is another data set of the same source.
For assay [7], the target named is T3, SARS-CoV-1 RBD (Sino Biological). Nature of the assay: ELISA, antigen coated on the plate, OD 405 nm. This is another data set of the same source.
The target in assay [8] is SARS-CoV-1 Spike (S) protein, strain SARS, on ExpiCHO cells (SARS-CoV (SARS-CoV-1), strain SARS, UniProt P59594 14-1255). Description: flow cytometry, ExpiCHO cells expressing SARS-CoV-1 S; % positive cells.
Assay [9] deals with T2, SARS-CoV-2 RBD (produced in house in …). Nature of the assay: ELISA, antigen coated on the plate, OD 405 nm. The source holds these as a separate data set.
For assay [10] the target is unchanged. Description: ELISA, antigen coated on the plate, OD 405 nm. The source holds these as a separate data set.
Assay [11] shares this target. Description: ELISA, antigen coated on the plate, OD 405 nm. The source holds these as a separate data set.
For assay [12] the target is unchanged. Nature of the assay: ELISA, antigen coated on the plate, OD 405 nm. The source holds these as a separate data set.

Where two headings read alike, the source gives them in different places.

B1: S110 (antibody, V domains shown)
VH: QVQLVESGGGLVQAGGSLRLSCAASGRTFSSAGMAWFRQAPGKEREFVATSNWNGGDTDYADSVKGRFTISRDNAKNTVYLQMNNLKPEDTAVYYCAAHLQKYGGDYYARIWGQGTQVTVS
What is called EC50 (read off the curve) is the midpoint of the concentration-response curve. Read a low EC50 (read off the curve) as a more potent agent. Consider B1, for which the “EC50 (read off the curve)” value in assay [1] and in assay [2] was approximately 0.08 µg/mL throughout.

B2: SARS-CoV-2 S303 mAb (B cell supernatant) (antibody, V domains shown)
VH: EVQLVESGGGLVKPGGSLRLSCAASGFTFLTYSMNWVRQTPGKRLQWVSAISGSGGATYYADSVKGRFTISRDNSKNTLYLQMNTVTADDTAIYFCARERDDIFPMGLNAFDIWGQGAMVIVSS
VL: DIQMTQSPSTLSASVGDRVTITCRASQSISNWLAWYQQKPGKAPKLLIYKASSLESGVPSRFSGSGSGTEFTLTISSLQPDDSATYYCQQYDTYSWTFGQGTKVEIK
As for B2, in assay [3], the “Percent neutralization of infection, dilution 2” value is 6%; the “Percent neutralization of infection, dilution 6” value was 5%; the “Percent neutralization of infection, dilution 18” value was 2%; the “Percent neutralization of infection, dilution 54” value turned out to be 12%.

B3: S303-rIgG1-LS (antibody, V domains shown)
VH: B2 VH
VL: B2 VL
Consider B3, for which the concentration giving a half-maximal response (EC50 (read off the curve)) in assay [4] was approximately 0.09 µg/mL; in assay [5], approximately 0.03 µg/mL; in assay [6] it was approximately 0.09 µg/mL; in assay [7], approximately 0.03 µg/mL.

B4: S310 (antibody, V domains shown)
VH: QVQLVQSGAELKKPGSSVKVSCKASGGTFNSYSFNWVRQAPGQGLEWLGGIIPVLGTSNYAQKFQGRVAVTADEFTTTAYMELSSLRSEDTAVYYCATRTYDSSGYRPYYYGLDVWGQGTPVTVSS
VL: QSALTQPASVSGSPGQSITISCTGTSSDVGSYNLVSWYQQRPGKAPELMIYEVTKRPSGLSNRFSGSKSGNTASLTISGLQAEDEADYYCCSYAGSDTVIFGGGTKVTVL
On to B4, for which the “EC50 (read off the curve)” value in [8] was approximately 0.2 µg/mL.

B5: S315 rIgG1-MLNS (antibody, V domains shown)
VH: EVQLVESGGGLVQPGGSLRLSCAASGFTFSNYWMTWVRQAPGKGLEWVANIKQDGSEKYYVDSVKGRFTISRDNAKNSLYLQMNSLRAEDTAVYYCARDLWWNDQAHYYGMDVWGQGTTVTVSS
VL: SYELTQPPSVSVSPGQTARITCSGDAFPNQYAYWYQQKPGQAPVMLIYKDSERPSGIPERFFGSSSGTTVTLTIRGVQAEDEADYYCQSADSSGTVFGGGTKLTVL
B5: the 50% effective concentration (EC50 (read off the curve)) in [9] and in assay [10] was approximately 0.2 µg/mL throughout.

B6: SARS-CoV-2 S308 mAb (B cell supernatant) (antibody, V domains shown)
VH: QVQLVESGGGVVQPGRSLRLSCAASRFTFSSYGMHWVRQAPGKGLEWVAVIWHDGNNKHYGDSVKGRVTISRDNSKNTLYLQMTSLRAEDTAVYYCARAVTTFKGSGRARMRGMDVWGQGTTVTVSS
VL: DIQLTQSPSFLSASVGDRVTITCRASQGINTYLAWYQQKPGKAPKLLIYAASTLQSGVPSRFSGSGSGTEFTLTISSLQPEDFATYYCQHLDTYPFTFGPGTKVDIK
Take B6: in [3], the “Percent neutralization of infection, dilution 2” value was -46%; the “Percent neutralization of infection, dilution 6” value worked out at 19%; the “Percent neutralization of infection, dilution 18” value was 32%; the “Percent neutralization of infection, dilution 54” value amounted to 16%.

B7: SARS-CoV-2 S306 mAb (B cell supernatant) (antibody, V domains shown)
VH: QVQLVQSGAEVKKPGASVKVSCKASTYTFTSFGISWVRQAPGQGLEWMGWITTYSGDTNYAQKFQGRVTMTTDTSTNTAYMELRSLRSDDTAVYYCASDYFDSSGYYHSFDYWGQGTLVTVSS
VL: EIVLTQSPDTLSLSPGERATLSCRASQSVSSYLAWYQQRPGQAPRLLIYDASKRATGIPARFSGSGSGTDFTLTISSLEPEDFAVYYCQQRSNWPPGCSFGQGTKVEIK
As to B7, in assay [3], the “Percent neutralization of infection, dilution 2” value is -19%; the “Percent neutralization of infection, dilution 6” value stood at 15%; the “Percent neutralization of infection, dilution 18” value is -9%; the “Percent neutralization of infection, dilution 54” value was found to be 6%.

B8: S306 (antibody, V domains shown)
VH: B7 VH
VL: B7 VL
B8: in assay [8], the “EC50 (read off the curve)” value is approximately 0.02 µg/mL.

B9: SARS-CoV-2 S304 mAb (B cell supernatant) (antibody, V domains shown)
VH: EVQLVESGGGLVQPGGSLRLSCAASGFTFSSYDMHWVRQTTGKGLEWVSTIGTAGDTYYPDSVKGRFTISREDAKNSLYLQMNSLRAGDTAVYYCARGDSSGYYYYFDYWGQGTLLTVSS
VL: DIQMTQSPSSLSAAVGDRVTITCRASQSIGSYLNWYQQKPGKAPKLLIYAASSLQSGVPSRFSGSGSGTDFTLTISSLQPEDFAIYYCQQSYVSPTYTFGPGTKVDIK
Regarding B9, in assay [3], the “Percent neutralization of infection, dilution 2” value is -21%; the “Percent neutralization of infection, dilution 6” value was found to be 25%; the “Percent neutralization of infection, dilution 18” value is -22%; the “Percent neutralization of infection, dilution 54” value came to 7%.

B10: S304-rIgG1-LS (antibody, V domains shown)
VH: B9 VH
VL: B9 VL
For B10, the “EC50 (read off the curve)” value in assay [11] and in assay [12] was approximately 0.1 µg/mL throughout.

For the origin of these results see patent US20230331821A1 (VIR BIOTECHNOLOGY, published 2023).
